According to patent US9081020B2, “Mutant proteins and methods for selecting them” (Heptares Therapeutics Limited, priority 2008, dated 2015):
Positions count from the first letter of the chain named. In names and notes the source's numbering stands. Several values for one entry are separate records, joined by “and”; a condition that tells them apart may be missing. Equal entries are not always repeated. Where two headings read alike, the source gives them in different places.

T1: M1 mAChR (Rattus norvegicus, UniProt P08482, DEL225-353/L65A)
T1 construct: (His)9QGG (C); expressed in transfected cells; host or cells: E. coli BL21 (whole cells)
T1 sequence (P08482 with tags, fused parts or gaps L65A/DEL225-353): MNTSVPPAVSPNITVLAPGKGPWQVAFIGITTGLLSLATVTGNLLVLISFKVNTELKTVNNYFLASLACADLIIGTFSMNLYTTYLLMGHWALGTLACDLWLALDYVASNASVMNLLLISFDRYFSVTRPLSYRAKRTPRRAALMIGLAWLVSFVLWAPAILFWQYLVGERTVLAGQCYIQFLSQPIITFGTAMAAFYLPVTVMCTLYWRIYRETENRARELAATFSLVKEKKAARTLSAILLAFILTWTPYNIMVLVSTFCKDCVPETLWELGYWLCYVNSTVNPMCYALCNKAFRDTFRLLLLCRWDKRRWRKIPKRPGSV

B1: L65A: M1 mAChR mutant L65A (TM2); background and internal control in Example 3 (protein, UniProt P11229 1-460, looked up, variant L65A)
Muscarinic acetylcholine …: MNTSAPPAVSPNITVLAPGKGPWQVAFIGITTGLLSLATVTGNLLVLISFKVNTELKTVNNYFLASLACADLIIGTFSMNLYTTYLLMGHWALGTLACDLWLALDYVASNASVMNLLLISFDRYFSVTRPLSYRAKRTPRRAALMIGLAWLVSFVLWAPAILFWQYLVGERTVLAGQCYIQFLSQPIITFGTAMAAFYLPVTVMCTLYWRIYRETENRARELAALQGSETPGKGGGSSSSSERSQPGAEGSPETPPGRCCRCCRAPRLLQAYSWKEEEEEDEGSMESLTSSEGEEPGSEVVIKMPMVDPEAQAPTKQPPRSSPNTVKRPTKKGRDRAGKGQKPRGKEQLAKRKTFSLVKEKKAARTLSAILLAFILTWTPYNIMVLVSTFCKDCVPETLWELGYWLCYVNSTINPMCYALCNKAFRDTFRLLLLCRWDKRRWRKIPKRPGSVHRTPSRQC
B2: L65F: M1 mAChR mutant L65F, homologous to M4 mAChR (protein)
chain: B1 Muscarinic acetylcholine … with A65F
B3: L65A/T202A: M1 mAChR double mutant, Ala mutation on L65A background (protein, UniProt P11229 1-460, looked up, variant L65A T202A)
Muscarinic acetylcholine …: B1 Muscarinic acetylcholine … with T202A
B4: L65A/L144A: M1 mAChR double mutant, Ala mutation on L65A background (protein, UniProt P11229 1-460, looked up, variant L65A L144A)
Muscarinic acetylcholine …: B1 Muscarinic acetylcholine … with L144A
B5: L65V: M1 mAChR mutant L65V selected from random mutagenesis screen (protein)
chain: B1 Muscarinic acetylcholine … with A65V
B6: L65A/W101A: M1 mAChR double mutant, W101A on L65A background (protein, UniProt P11229 1-460, looked up, variant L65A W101A)
Muscarinic acetylcholine …: B1 Muscarinic acetylcholine … with W101A
B7: L65A/Y208A: M1 mAChR double mutant, Ala mutation on L65A background (protein, UniProt P11229 1-460, looked up, variant L65A Y208A)
Muscarinic acetylcholine …: B1 Muscarinic acetylcholine … with Y208A
B8: L65A/Y82A: M1 mAChR double mutant, Ala mutation on L65A background (protein, UniProt P11229 1-460, looked up, variant L65A Y82A)
Muscarinic acetylcholine …: B1 Muscarinic acetylcholine … with Y82A
B9: L65A/C205A: M1 mAChR double mutant, Ala mutation on L65A background (protein, UniProt P11229 1-460, looked up, variant L65A C205A)
Muscarinic acetylcholine …: B1 Muscarinic acetylcholine … with C205A
B10: L65A/L402A: M1 mAChR double mutant, Ala mutation on L65A background (protein, UniProt P11229 1-460, looked up, variant L65A L402A)
Muscarinic acetylcholine …: B1 Muscarinic acetylcholine … with L402A

Experiments:
M1 mAChR [1] = format: physicochemical; conditions: for % 3H-NMS retained BOG / % loss/wt / mean % retained: 0.82% BOG; for % 3H-NMS retained BOG / % loss/wt / mean % retained / Stability (βOG in-situ) % L65A control: 4° C., 3 h; for % 3H-NMS retained BOG: whole E. coli BL21 cells, single culture; for % loss/wt: % loss relative to wild-type control; for mean % retained: mean of the cultures; for Stability (βOG in-situ) % L65A control / in-situ stability relative to L65A, in words: 0.82% β-octyl glucoside; for Stability (βOG in-situ) % L65A control: % loss(control)/% loss(mutant), mean±SEM of 3; for in-situ stability relative to L65A, in words: L65A background
M1 mAChR [2] = target: T1, M1 mAChR; format: physicochemical; conditions: after in-situ destabilisation in BOG or DDM
M1 mAChR [3] = assay: thermal stability (Tm) of partially purified [3H]NMS-labelled receptors in 0.1% dodecyl-β-maltoside; format: physicochemical, rat; conditions: 0.1% DDM; for Tm (0.1% DDM): incubation time 30 min, mean±range/SEM; for thermal stability (Tm) relative to L65A, in words: partially purified mutants
Procedure: For measurements of thermal melting temperature (Tm), [3H]NMS-labelled receptors were partially purified by immobilized metal ion affinity chromatography from cultures grown from single clones expressed in E. Coli BL21 cells, essentially as described in Hulme and Curtis, 1998 (21). Tm measurements were carried out after gel-filtration of partially purified receptors into 50 mM sodium phosphate, 5 mM β-mercaptoethanol and 0.1% dodecyl-β-maltoside (DDM), using an incubation time of 30 min. Values were tabulated as mean±range/SEM of 2 or more independent measurements (Table 3).

Molecule | Stability (βOG in-situ) % L65A control (M1 mAChR [1]) | Tm (0.1% DDM) (M1 mAChR [3]) | thermal stability (Tm) relative to L65A, in words (M1 mAChR [3]) | further results
B1 | 100 % L65A control | 29.3 ± 0.4 °C |  | % 3H-NMS retained BOG (M1 mAChR [1]; listed as L65A 1): 83% and 79%; % 3H-NMS retained BOG (M1 mAChR [1]; listed as L65 A 2): 86%; % 3H-NMS retained BOG (M1 mAChR [1]; listed as L65A 2): 79%; % loss/wt (M1 mAChR [1]; listed as L65A 1): 0.29 and 0.4; mean % retained (M1 mAChR [1]; listed as L65A 1): 84.5% and 79%; enhanced stability relative to wild-type (retention of bound 3H-NMS) (M1 mAChR [2]): 2 fold
B2 | 74 ± 16 % L65A control | 30.2 ± 0.5 °C |  | 
B3 | 94 ± 1 % L65A control | 31.1 ± 0.2 °C | marginal increase | 
B4 | 125 ± 16 % L65A control | 29.8 ± 1.0 °C |  | 
B5 | 115 % L65A control | 32.6 ± 0.4 °C | more stable than L65A | % 3H-NMS retained BOG (M1 mAChR [1]; listed as L65V 1): 81%; % 3H-NMS retained BOG (M1 mAChR [1]; listed as L65V 2): 95%; % loss/wt (M1 mAChR [1]): 0.23; mean % retained (M1 mAChR [1]): 88%
B6 | 136 ± 9 % L65A control | 31.0 ± 0.4 °C | increased stability | in-situ stability relative to L65A, in words (M1 mAChR [1]): more stable
B7 | 100 ± 7 % L65A control | 29.6 ± 0.5 °C |  | 
B8 | 175 ± 61 % L65A control | 25.3 ± 0.5 °C | Reduced stability | in-situ stability relative to L65A, in words (M1 mAChR [1]): enhanced stability in 2 out of 3 experiments
B9 | 106 ± 5 % L65A control | 28.1 ± 0.1 °C |  | 
B10 | 105 ± 10 % L65A control | 30.1 ± 0.5 °C |  | 
